For test [1], the target named is T1, SARS-CoV-2 spike RBD (WT) (Severe acute respiratory syndrome …, UniProt P0DTC2). In words: BLI. A general note: BLI is a label-free optical method that tracks binding on a fibre tip over time.
For test [2], the target named is T1, SARS-CoV-2 spike RBD (WT). In words: ELISA. The arrangement: unit not given here. In general terms: In an ELISA, binding on a coated surface is turned into a signal by an enzyme label.

Where only a bound is given, the exact number is not on record here.

B1: C2726 (antibody, V domains shown)
VH: EVQLVQSGAEVKKPGESLKISCKGSGYSFTSYWIGWVRQMPGKGLEWMGIIYPGDSDTRYSPSFQGQVTISADKSISTAYLQWSSLKASDTAMYYCARRTAARTNGVCLDYWGQGTLVTVSS
VL: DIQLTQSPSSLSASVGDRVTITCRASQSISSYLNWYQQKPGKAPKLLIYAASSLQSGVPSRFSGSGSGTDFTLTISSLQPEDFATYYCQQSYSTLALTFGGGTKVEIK
The Kd is a measure of binding affinity in units of concentration. In test [1], B1 gave a Kd of 133 nM. Also, the binding score in test [2] was found to be 3440.

B2: D030 (antibody, V domains shown)
VH: QVQLVQSGAEVKKPGASVKVSCKASGYTFTSYDINWVRQATGQGLEWMGWMNPNSGNTGYAQKFQGRVTMTRNTSISTAYMELSSLRSEDTAVYYCARDGSGPYDILTGYGMDVWGQGTTVTVSS
VL: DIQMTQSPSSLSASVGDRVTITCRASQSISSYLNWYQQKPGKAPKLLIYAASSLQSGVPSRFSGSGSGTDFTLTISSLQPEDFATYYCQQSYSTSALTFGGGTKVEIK
In test [2], B2 gave a binding score above 10000.

B3: D131 (antibody, V domains shown)
VH: QVQLVQSGAEVKKPGASVKVSCKASGYTFTSYGISWVRQAPGQGLEWMGWISAYNGNTNYVQKLQGRVTMTTDTSTSTAYMELRSLRSDDTAVYYCARVQYYYGSGSYRSTYYFDYWGQGTLVTVSS
VL: QPVLTQSSSASASLGSSVKLTCTLSSGHSSYIIAWHQQQPGKAPRYLMNLEGSGSYNKGSGVPDRFSGSSSGADRYLTISNLQSEDEADYYCETWDSNIWVFGGGTKLTVL
Turning to B3, the binding score in test [2] was above 10000.

B4: D044 (antibody, V domains shown)
VH: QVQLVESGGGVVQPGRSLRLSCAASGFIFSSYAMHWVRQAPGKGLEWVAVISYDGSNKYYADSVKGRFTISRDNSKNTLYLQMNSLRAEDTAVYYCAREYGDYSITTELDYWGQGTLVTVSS
VL: QSVLTQPPSVSGAPGQRVTISCTGSSSNIGAGYDVHWYQQLPGTAPKLLIYGNSNRPSGVPDRFSGSKSGTSASLAITGLQAEDEADYYCQSYDSSLSGYVFGTGTKVTVL
Regarding B4, the equilibrium dissociation constant (Kd) in test [1] was 56.9 nM. The same molecule yielded a binding score in test [2] of 266.

B5: D137 (antibody, V domains shown)
VH: QVQLVQSGAEVKKPGASVKVSCKASGYTFTSYDINWVRQATGQGLEWMGWMNPNSGNTGYAQKFQGRVTMTRNTSISTAYMELSSLRSEDTAVYYCARAYCSGGSCYSQPWGQGTLVTVSS
VL: QSALTQPPSASGSPGQSVTISCTGTSSDVGGYNYVSWYQQHPGKAPKLMIYEVSKRPSGVPDRFSGSKSGNTASLTVSGLQAEDEADYYCSSYAGSNNWVFGGGTKLTVL
In test [2], B5 returned a binding score of 395.

B6: D162 (antibody, V domains shown)
VH: QVQLVESGGGVVQPGGSLRLSCAASGFTFSSYGMHWVRQAPGKGLEWVAFIRYDGSNKYYADSVKGRFTISRDNSKNTLYLQMNSLRAEDTAVYYCAKDQYYYGSGSYPWFDPWGQGTLVTVSS
VL: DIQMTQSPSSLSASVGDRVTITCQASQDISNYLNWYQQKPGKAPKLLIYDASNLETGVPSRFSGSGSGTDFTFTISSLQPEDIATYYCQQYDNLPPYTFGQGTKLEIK
Take B6: binding in test [1] was put at a Kd of 1440 nM. In addition, the binding score in test [2] was 958.

B7: D054 (antibody, V domains shown)
VH: QVQLVQSGAEVKKPGASVKVSCKASGYTFTSYYMHWVRQAPGQGLEWMGIINPSGGSTSYAQKFQGRVTMTRDTSTSTVYMELSSLRSEDTAVYYCARESGTGFGELPKGGPFDYWGQGTLVTVSS
VL: not shown
In test [2], B7 registered a binding score above 10000.

B8: D069 (antibody, V domains shown)
VH: QVQLVESGGGVVQPGGSLRLSCAASGFTFNIYGMHWVRQAPGKGLEWVAFIRYDGSNKYYADSVKGRFTISRDNSKNTLYLQMNSLRAEDTAVYYCAKSVGYYASGSYYFDYWGQGTLVTVSS
VL: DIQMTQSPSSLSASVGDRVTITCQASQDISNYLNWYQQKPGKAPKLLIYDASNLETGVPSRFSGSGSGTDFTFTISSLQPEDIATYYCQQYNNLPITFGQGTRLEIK
The molecule B8 showed a Kd in test [1] of 140 nM. The molecule also yielded a binding score in test [2] of 252.

B9: D073 (antibody, V domains shown)
VH: QLQLQESGPGLVKPSETLSLTCTVSGGSMSSGSYYWGWIRQPPGKGLEWIGSIFYSGSTYYNPSLKSRVTISIDTSKRQFSLNLRSVTAADKAVYYCARQDIMGYSDVWGEGTTVTVSS
VL: EIVLTQSPGTLSLSPRERATLSCRASQSITSTYFAWYQQRPGQAPRLLIYDGSRRATGIPDRFSASGSGTDFTLTISGLEAEDFAVYYCQQYLRLPYTFGQGTKLEIK
B9 came in with a binding score in test [2] above 10000.

B10: C2744 (antibody, V domains shown)
VH: EVQLLESGGGLVQTGGSLRLSCAASGFTFSSYAMSWVRQAPGKGLEWVSAISGTGGSTYYADSVKGRFTISRDHSKNTLYLQMNSLRAEDTAVYYCAKPINMIDPHDAFDIWGQGTMVTVSS
VL: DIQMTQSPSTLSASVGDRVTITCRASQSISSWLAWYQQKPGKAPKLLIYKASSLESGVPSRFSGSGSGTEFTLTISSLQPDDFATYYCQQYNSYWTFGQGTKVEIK
B10: the Kd in test [1] came to 248 nM. For the same molecule, in test [2], the binding score was determined as 5390.

B11: D100 (antibody, V domains shown)
VH: QVQLVQSGAEVKKPGASVKVSCKASGYTFTSYGISWVRQAPGQGLEWMGWISAYNGNTNYAQKLQGRVTMTTDTSTSTAYMELRSLRSDDTAVYYCARVPDRRETPYYDFWSGYSIFDYWGQGTLVTVSS
VL: DIQMTQSPSSLSASVGDRVTITCRASQGISNYLAWFQQKPGKAPKSLIYAASSLQSGVPSKFSGSGSGTDFTLTISSLQPEDFATYYCQQYNSYPLTFGGGTKVEIK
B11 showed a Kd in test [1] of 530 nM. In test [2], this molecule displayed a binding score above 10000.

B12: D165 (antibody, V domains shown)
VH: QVQLVQSGAEVKKPGASVKVSCKASGYTFSNYVINWVRQAPGQRPEWMGWINADNGHTVYSQKLQGRVTITTDTSASEAYMELSGLRSEDTAVYYCARGREDYYNNEPYGMDVWGQGTTVTVSS
VL: DIQMTQSPSSLSASVGDRVTITCRASQTISNYLNWYQQKPGQAPKLLIFAASSLQTGVPSRFSGSGSGTTFTLTISSLQPEDFATYYCQQSYGSLYTFGQGTKLDIK
Regarding B12, the affinity in test [1], expressed as Kd, was 117 nM. For the same molecule, the binding score in test [2] was determined as 1370.

B13: D102 (antibody, V domains shown)
VH: QVQLVESGGGVVQPGGSLRLSCAASGFTFSSYGMHWVRQAPGKGLEWVAFIRYDGSNKYYADSVKGRFTISRDNSKNTLYLQMNSLRAEDTAVYYCAKTLGYYYDSSGYYLDYWGQGTLVTVSS
VL: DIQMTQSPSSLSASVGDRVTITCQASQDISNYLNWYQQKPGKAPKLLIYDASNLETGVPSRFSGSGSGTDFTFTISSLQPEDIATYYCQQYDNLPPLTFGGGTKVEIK
In test [1], B13 had a Kd of 49.1 nM. For the same molecule, in test [2], the binding score came to 22.3.

B14: D079 (antibody, V domains shown)
VH: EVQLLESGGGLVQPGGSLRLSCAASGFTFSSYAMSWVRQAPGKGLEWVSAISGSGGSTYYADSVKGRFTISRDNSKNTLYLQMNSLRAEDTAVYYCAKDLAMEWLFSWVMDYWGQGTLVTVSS
VL: QSALTQPASVSGSPGQSITISCTGTSSDVGGYNYVSWYQQHPGKAPKIMIYDVSNRPSGVFNRFFGSKSGNTASLTIFGLQAEDEADYYCSSYTSSSTLGVFGGGTKLTVL
Molecule B14 gave a binding score in test [2] above 10000.

B15: D184 (antibody, V domains shown)
VH: QVQLVQSGAEVKKPGSSVKVSCKASGGTFSSYAISWVRQAPGQGLEWMGGIIPIFGTANYAQKFQGRVTITADESTSTAYMELSSLRSEDTAVYYCARGRGSTYYYYYYMDVWGKGTTVTVSS
VL: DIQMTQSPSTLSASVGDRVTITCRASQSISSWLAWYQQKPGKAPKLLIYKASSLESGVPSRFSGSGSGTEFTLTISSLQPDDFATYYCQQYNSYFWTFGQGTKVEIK
Consider B15, for which the binding score in test [2] came out at 8050.

B16: D001 (antibody, V domains shown)
VH: QVQLVESGGGVVQPGRSLRLSCAASGFTFSSYGMHWVRQAPGKGLEWVAVISYDGSNKYYVDSVKGRFTISRDNSKNTLYLQMNSLRAEDTAVYYCAKEGGSYYGGGGYFDYWGQGTLVTVSS
VL: DIQMTQSPSSLSASVGDRVTITCQASQDISNYLHWYQQKPGKAPKLLIYDASNLETGVPSRFSGSGSGTDFTLTISSLQPEDIATYYCQQYDNLPYTFGQGTKLEIK
In test [1], B16 returned a Kd of 16.6 nM. The same molecule registered a binding score in test [2] of 77.6.

B17: D040 (antibody, V domains shown)
VH: QVQLVESGGGVVQPGRSLRLSCAASGFTFSSYGMHWVRQAPGKGLEWVTAISYDGSNKYYADSVRGRFTISRDNSKRTLYLQMNSLRAEDTAVYYCAKGVGPYCSGGSCYSPYFDYWGQGTLVTVSS
VL: DIQMTQSPSSLSASIGDRVTITCQANQDISNYLNWYQQKPRKAPKLLIYDASDLETGVPSRFSGSGSGTDFTFTISSLQPEDIATYYCQQSDNLPLTFGGGTKVEIK
As for B17, the Kd in test [1] came to 32 nM. The binding score in test [2] came out at 7.71.

B18: C2706 (antibody, V domains shown)
VH: EVQLVESGGGVVQPGGSLRLSCAASGFTFSSYGMHWVRQAPGKGLEWVAFIRYDGSNKYYADSVKGRFTISRDNSKNTLYLQMNSLRAEDTAVYYCAKVGGRYSGYEGYFDYWGQGTLVTVSS
VL: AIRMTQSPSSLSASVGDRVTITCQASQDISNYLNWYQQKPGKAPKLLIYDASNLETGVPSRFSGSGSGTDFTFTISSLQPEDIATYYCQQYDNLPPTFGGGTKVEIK
On to B18, for which, in test [2], the binding score is above 10000.

B19: D032 (antibody, V domains shown)
VH: QVQLVESGGGVVQPGRSLRLSCAASGFTFSSYGMHWVRQAPGKGLEWVAVISYDGSNKYYADSVKGRFTISRDNSKNTLYLQMNSLRAEDTAVYYCAKVETVVDSDYYYYYGMDVWGQGTTVTVSS
VL: SYVLTQPPSVSVSPGQTARITCSGDALPKQYAYWYQQKPGQAPVLVIYKDSERPSGIPERFSGSSSGTTVTLTISGVQAEDEADYYCQSADSSGTYWVFGGGTKLTVL
B19: the binding score in test [2] is above 10000.

B20: D081 (antibody, V domains shown)
VH: QVQLQESGPGLVKPSQTLSLTCTVSGGSISSGDYYWSWIRQPPGKGLEWIGYIYYSGSTYYNPSLKSRVTISVDTSKNQFSLKLSSVTAADTAVYYCARVAGIVNWFDPWGQGTLVTVSS
VL: NFMLTQPHSVSESPGKTVTISCTGSSGSIASNYVQWYQQRPGSAPTTVIYEDNQRPSGVPDRFSGSIDSSSNSASLTISGLKTEDEADYYCQSYDSSNQVFGGGTKLTVL
Molecule B20 came in with a binding score in test [2] above 10000.

B21: D166 (antibody, V domains shown)
VH: EVQLVESGGGLVQPGGSLRLSCAASGFTFSSYDMHWVRQATGKGLEWVSAIGTAGDTYYPGSVKGRFTISRENAKNSLYLQMNSLRAGDTAVYYCARVSYDSSGYYWVFDYWGQGTLVTVSS
VL: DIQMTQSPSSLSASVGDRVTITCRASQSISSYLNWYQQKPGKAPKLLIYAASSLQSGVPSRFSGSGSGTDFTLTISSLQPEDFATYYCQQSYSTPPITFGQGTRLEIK
B21 registered a binding score in test [2] of 2870.

B22: D058 (antibody, V domains shown)
VH: QVQLQESGPGLVKPSETLSLTCTVSGYSISSGYYWGWIRQPPGKGLEWIGSIYHSGSTYYNPSLKSRVTISVDTSKNQFSLKLSSVTAADTAVYYCARDFPLTLYGVLISDAFDIWGQGTMVTVSS
VL: SYELTQPPSVSVSPGQTARITCSADALPKQYAYWYQQKPGQAPVLVIYKDSERPSGIPERFSGSSSGTTVTLTISGVQAEDEADYYCQSADSSGKVFGGGTKLTVL
B22 gave a dissociation constant Kd in test [1] of 24.1 nM. This molecule showed a binding score in test [2] of 84.8.

B23: D107 (antibody, V domains shown)
VH: QVQLVQSGAEVKKPGASVKVSCKASGYTFTSYDINWVRQATGQGLEWMGWMNPNSGNTGYAQKFQGRVTMTRNPSISTAYMELSSLTSDDTAVYYCATALPWDGYNPYYFHYWGQGTLVTVSS
VL: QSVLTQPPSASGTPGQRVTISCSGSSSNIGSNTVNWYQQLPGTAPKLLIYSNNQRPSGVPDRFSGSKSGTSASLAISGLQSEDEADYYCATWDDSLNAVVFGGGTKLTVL
With B23, the binding score in test [2] is above 10000.

B24: D104 (antibody, V domains shown)
VH: QVQLQQWGAGLLKPSETLSLTCAVYGESFSGHYWTWIRQPPGKGLEWIGEINHRGSTDYHASLKSRVSISIDTSKNQFSLRLKSVTAAETAIYYCARGRSAWPRRSFAFWGQGILVTVSS
VL: DIQMTQSPSTLSASVGDRVTITCRASQSISTSLAWYQQKPGKAPKLLIYESSTLESGIPSRFSGSGFRTGFTLTISSLQPDDVATYYCQHYNASPYTFGQGTKLEIK
As for B24, in test [2], the binding score is above 10000.

The values above are taken from article PMC9876794 (2022).
